T1: pig TF ECD-His (TF-His) protein (pig (Sus scrofa))
T1 construct: also called pig TF-His; pTF
T1 chain: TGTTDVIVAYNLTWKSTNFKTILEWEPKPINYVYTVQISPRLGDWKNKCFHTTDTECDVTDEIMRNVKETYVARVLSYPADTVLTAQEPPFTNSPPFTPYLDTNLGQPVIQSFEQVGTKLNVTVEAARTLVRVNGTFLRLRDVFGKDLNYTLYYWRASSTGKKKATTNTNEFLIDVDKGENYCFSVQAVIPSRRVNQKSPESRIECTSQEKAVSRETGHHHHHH


Tests used:
[1] = biological target: T2, human Tissue Factor (hTF) (human, UniProt P13726 33-295); assay: cell-based or functional assay
[2] = biological target: T1, pig TF ECD-His (TF-His) protein; assay: Biacore; antibody captured by anti-human IgG on CM5 chip, titration of pig TF-His, 1:1 model
Description: The ability of certain antibodies was tested for binding to pig TF. For pig TF Biacore-based measurements, a given anti-TF antibody was captured by an anti-human IgG antibody covalently coupled to a CM5 chip (GE Healthcare Bio-Sciences). Association between the anti-TF antibodies and a five-point three-fold titration of pig TF-His starting at 100 nM was measured for 180 to 240 sec. Subsequently, dissociation between the anti-TF antibody and TF-His was measured for 1800 sec. Kinetic data was analyzed and fitted globally using a 1:1 binding model.

[3] = biological target: T3, rabbit TF ECD-His (TF-His) protein (rabbit (Oryctolagus cuniculus), UniProt P24055 33-250); assay: Biacore; antibody captured by anti-human IgG on CM5 chip, titration of rabbit TF-His, 1:1 model
T3 construct: also called rabbit TF-His
T3 sequence (P24055 other isoform, or with tags, fused parts or gaps): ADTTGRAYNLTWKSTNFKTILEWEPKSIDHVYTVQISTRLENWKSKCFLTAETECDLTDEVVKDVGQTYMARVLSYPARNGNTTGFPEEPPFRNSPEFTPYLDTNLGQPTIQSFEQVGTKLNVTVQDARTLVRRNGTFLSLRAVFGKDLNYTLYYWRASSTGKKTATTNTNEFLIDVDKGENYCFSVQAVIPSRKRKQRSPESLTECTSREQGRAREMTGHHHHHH
Description: The ability of certain antibodies was tested for binding to rabbit TF. For rabbit TF Biacore-based measurements, a given anti-TF antibody was captured by an anti-human IgG antibody covalently coupled to a CM5 chip (GE Healthcare Bio-Sciences). Association between the anti-TF antibodies and a five-point three-fold titration of rabbit TF-His starting at 100 nM was measured for 180 to 240 sec. Subsequently, dissociation between the anti-TF antibody and TF-His was measured for 1800 sec. Kinetic data was analyzed and fitted globally using a 1:1 binding model.

[4] = biological target: T2, human Tissue Factor (hTF); assay: cell-based or functional assay; remark: listed apart in the source
human Tissue Factor (TF) = human Tissue Factor (TF) (human, UniProt P13726 33-295); assay: cell-based or functional assay

Binder | IC50, cell viability of A431 cells, Primary ADC, Continuous (FIG. 20A) [1] [nM] | IC50, cell viability of HPAF-II cells, Primary ADC, Continuous (FIG. 22E) [1] [nM] | IC50, cell viability of MDA-MB-231 cells, Primary ADC, Continuous (FIG. 22D) [1] [nM] | IC50, cell viability of A431 cells, Primary ADC, 4 hr, followed by washout (FIG. 20B) [4] [nM] | IC50, cell viability of A431 cells, Primary ADC, 4 hr, followed by washout, absence of FVIIa (FIG. 21A) [4] [nM] | also measured
anti-TF antibody 43D7 (antibody, human IgG1, V domains shown, Human IgG1) VH: QVQLQQWGAGLLKPSETLSLTCAVYGGSLSGYYWSWIRQPPGKGLEWIGEIGASGSTRYNPSLKSRVTISVDTSKNQFSLKLSSVTAADTAVYYCARDTPYYYEGGYYYYMDVWGKGTTVTVSS VL: EIVLTQSPGTLSLSPGERATLSCRASDSVDSSYLAWYQQKPGQAPRLLIYGAFSRANGIPDRFSGSGSGTDFTLTISRLEPEDFAVYYCQQAGVVPYTFGGGTKVEIK |  |  |  |  |  | IC50, cell viability of A431 cells, Secondary ADC (antibody with anti-human Fc Fab:MMAF), Continuous (FIG. 18B) [1]: 0.1 nM; Kd [2]: 8.8 nM; Kd [3]: 6.8 nM
anti-TF antibody 43D7 conjugated to MC-vc-PAB-MMAE (antibody, IgG1, V domains shown, MC-vc-PAB-MMAE on cysteines of the partially reduced antibody (chain and positions not stated), DAR 3-4) VH: QVQLQQWGAGLLKPSETLSLTCAVYGGSLSGYYWSWIRQPPGKGLEWIGEIGASGSTRYNPSLKSRVTISVDTSKNQFSLKLSSVTAADTAVYYCARDTPYYYEGGYYYYMDVWGKGTTVTVSS VL: EIVLTQSPGTLSLSPGERATLSCRASDSVDSSYLAWYQQKPGQAPRLLIYGAFSRANGIPDRFSGSGSGTDFTLTISRLEPEDFAVYYCQQAGVVPYTFGGGTKVEIK | 0.06 | 0.05 | 0.14 | 0.28 | 0.14 | 
anti-TF antibody 43B1 conjugated to MC-vc-PAB-MMAE (antibody, IgG1, V domains shown, MC-vc-PAB-MMAE on cysteines of the partially reduced antibody (chain and positions not stated), DAR 3-4) VH: QVQLQESGPGLVKPSQTLSLTCTVSGGSISSGQYWSWIRQHPGKGLEWIGEIYYSGSTRYNPSLKSRVTISVDTSKNQFSLKLSSVTAADTAVYYCARDAPYYYGGGYYYYMDVWGKGTTVTVSS VL: EIVLTQSPGTLSLSPGERATLSCRASESVDSSYLAWYQQKPGQAPRLLIYGASTRQTGIPDRFSGSGSGTDFTLTISRLEPEDFAVYYCQQAGVVPYTFGGGTKVEIK | 0.08 | 0.05 | 0.14 | 0.36 | 0.19 | 
43Ea-vc-MMAE (antibody, IgG1, V domains shown, MC-vc-PAB-MMAE on cysteines of the partially reduced antibody (chain and positions not stated), DAR 3-4) VH: QVQLQESGPGLVKPSQTLSLTCTVSGGSISSGQYWSWIRQHPGKGLEWIGEIYYSGSTRYNPSLKSRVTISVDTSKNQFSLKLSSVTAADTAVYYCARDTPYYYDGGYYYYMDVWGKGTTVTVSS VL: EIVLTQSPGTLSLSPGERATLSCRASQSVSSSYLAWYQQKPGQAPRLLIYGASSRATGIPDRFSGSGSGTDFTLTISRLEPEDFAVYYCQQVGVVPYTFGGGTKVEIK | 0.09 | 0.06 | 0.15 | 0.43 | 0.24 | 
anti-TF antibody 43D8 (antibody, human IgG1, V domains shown, Human IgG1) VH: QVQLQQWGAGLLKPSETLSLTCAVYGGSLSGYYWSWIRQPPGKGLEWIGEIGASGSTRYNPSLKSRVTISVDTSKNQFSLKLSSVTAADTAVYYCARDTPYYYEGGYYYYMDVWGKGTTVTVSS VL: EIVLTQSPGTLSLSPGERATLSCRASQSVSSSFLAWYQQKPGQAPRLLIYGAYSRATGIPDRFSGSGSGTDFTLTISRLEPEDFAVYYCQQAGVVPYTFGGGTKVEIK |  |  |  |  |  | Kd [2]: 19.2 nM; Kd [3]: 7.7 nM
5G9 (humanized TF8-5G9, CNTO 860) (antibody, V domains shown) VH: QVQLVESGGGVVQPGRSLRLSCKASGFNIKDYYMHWVRQAPGKGLEWIGLIDPENGNTIYDPKFQGRFTISADNSKNTLFLQMDSLRPEDTAVYYCARDNSYYFDYWGQGTPVTVSS VL: DIQMTQSPSSLSASVGDRVTITCKASQDIRKYLNWYQQKPGKAPKLLIYYATSLADGVPSRFSGSGSGTDYTFTISSLQPEDIATYYCLQHGESPYTFGQGTKLEIT |  |  |  |  |  | % FXa at 12.5 nM antibody (human Tissue Factor (TF)): 37%; % FXa at 25 nM antibody (human Tissue Factor (TF)): 33%; % FXa at 50 nM antibody (human Tissue Factor (TF)): 30%; % FXa at 100 nM antibody (human Tissue Factor (TF)): 30%
tisotumab vedotin (TF-011) ADC (antibody, V domains shown, MC-vc-PAB-MMAE on cysteines of the partially reduced antibody (chain and positions not stated), DAR 3-4) VH: EVQLLESGGGLVQPGGSLRLSCAASGFTFSNYAMSWVRQAPGKGLEWVSSISGSGDYTYYTDSVKGRFTISRDNSKNTLYLQMNSLRAEDTAVYYCARSPWGYYLDSWGQGTLVTVSS VL: DIQMTQSPPSLSASAGDRVTITCRASQGISSRLAWYQQKPEKAPKSLIYAASSLQSGVPSRFSGSGSGTDFTLTISSLQPEDFATYYCQQYNSYPYTFGQGTKLEIK | 0.05 |  |  | 0.17 |  | 
